Paper PMC3458034, “Structure and Flexibility of the C-Ring in the Electromotor of Rotary FoF1-ATPase of Pea Chloroplasts” (PLoS ONE, 2012)

Target: the molecule itself
Test: crystal structure; c-ring from a native preparation in detergent; crystals grown in 100 mM Na-acetate pH 4.5, 50 mM MgCl2, 50 mM NaCl, 10 mM yttrium chloride, 14-24% PEG 550 MME; 3.4 Å

B1: chloroplast ATP synthase subunit-c of the green pea (Pisum sativum), as the c-ring (natural protein, UniProt P08212 1-81, looked up)
chain: MNPLIAAASVIAAGLAVGLASIGPGVGQGTAAGQAVEGIARQPEAEDKIRGTLLLSLAFMEALTIYGLVVALALLFANPFV
notes: ATP synthase (CFoCF1) subunit c of the chloroplast, Pisum sativum; each monomer is printed as an 81-residue hairpin-shaped polypeptide (TM1 residues 4-41, loop 42-45, TM2 46-75); Native preparation, no tags; Homo-tetradecameric ring in the crystal; also called c-subunit; c14; source: purified from thylakoid membranes of P. sativum var; Alaska young leaves (DDM, PEG precipitation, sucrose …)
- stoichiometry N: 14
